In patent US7829082B2, “Catheter composition and uses thereof” (Genentech, Inc., priority 2001, dated 2010):
Several values for one entry are separate records, joined by “and”; a condition that tells them apart may be missing. Equal entries are not always repeated.

Assays:
[1] = target: T1, in vitro clot consisting of plasminogen and fibrin (Homo sapiens, UniProt P00747+P02671+P02675+P02679); test: Clot lysis assay of tenecteplase; type: biochemical; details: for overall percent specific activity of the recovered protein: over 24 hours at ambient conditions; for Clot lysis (+cent): after centrifugation; for Clot lysis (−cent): before centrifugation
T1 construct: Plasminogen kept frozen at or below −60° C. until use; purchased Biocell (fibrinogen); Calbiochem (thrombin)
T1 sequence (P00747 20-810 limits assumed): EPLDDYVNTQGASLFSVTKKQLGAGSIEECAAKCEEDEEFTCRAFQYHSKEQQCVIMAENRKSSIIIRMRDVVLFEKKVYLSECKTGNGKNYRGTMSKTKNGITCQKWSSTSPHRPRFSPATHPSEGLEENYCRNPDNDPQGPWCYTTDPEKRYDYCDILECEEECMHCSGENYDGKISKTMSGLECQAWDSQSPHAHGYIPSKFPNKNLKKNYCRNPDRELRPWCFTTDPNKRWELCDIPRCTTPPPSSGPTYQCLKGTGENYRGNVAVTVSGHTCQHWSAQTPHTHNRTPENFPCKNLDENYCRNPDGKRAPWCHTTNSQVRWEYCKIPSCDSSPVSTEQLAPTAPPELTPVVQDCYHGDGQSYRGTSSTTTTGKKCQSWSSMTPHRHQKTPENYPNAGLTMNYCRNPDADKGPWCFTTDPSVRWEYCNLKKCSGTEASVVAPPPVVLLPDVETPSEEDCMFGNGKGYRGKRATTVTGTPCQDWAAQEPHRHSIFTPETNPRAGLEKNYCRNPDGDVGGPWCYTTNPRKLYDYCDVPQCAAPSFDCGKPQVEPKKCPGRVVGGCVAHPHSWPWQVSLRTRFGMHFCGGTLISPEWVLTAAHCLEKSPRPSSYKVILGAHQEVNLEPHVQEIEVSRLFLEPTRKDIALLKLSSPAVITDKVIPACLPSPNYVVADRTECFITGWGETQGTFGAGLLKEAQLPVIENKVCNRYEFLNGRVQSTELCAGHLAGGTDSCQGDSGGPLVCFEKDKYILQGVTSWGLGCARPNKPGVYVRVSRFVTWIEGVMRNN
T1 sequence (P02671 36-629 limits assumed): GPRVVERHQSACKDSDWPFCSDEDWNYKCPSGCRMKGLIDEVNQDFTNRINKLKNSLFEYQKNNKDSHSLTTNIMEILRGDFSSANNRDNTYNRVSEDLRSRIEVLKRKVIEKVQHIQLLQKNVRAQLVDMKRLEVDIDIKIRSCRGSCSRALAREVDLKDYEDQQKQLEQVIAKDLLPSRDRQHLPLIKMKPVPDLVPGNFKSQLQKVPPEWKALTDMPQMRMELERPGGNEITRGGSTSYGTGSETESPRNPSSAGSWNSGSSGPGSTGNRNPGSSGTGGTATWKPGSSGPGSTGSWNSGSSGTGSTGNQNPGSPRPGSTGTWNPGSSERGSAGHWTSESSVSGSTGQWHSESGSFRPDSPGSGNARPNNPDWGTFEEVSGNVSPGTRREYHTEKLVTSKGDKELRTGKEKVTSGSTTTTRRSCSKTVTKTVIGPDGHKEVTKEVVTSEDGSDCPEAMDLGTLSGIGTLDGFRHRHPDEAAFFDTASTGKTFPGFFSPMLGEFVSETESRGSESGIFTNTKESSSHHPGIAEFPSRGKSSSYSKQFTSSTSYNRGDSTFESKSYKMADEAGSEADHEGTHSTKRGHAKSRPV
T1 sequence (P02675 45-491 limits assumed): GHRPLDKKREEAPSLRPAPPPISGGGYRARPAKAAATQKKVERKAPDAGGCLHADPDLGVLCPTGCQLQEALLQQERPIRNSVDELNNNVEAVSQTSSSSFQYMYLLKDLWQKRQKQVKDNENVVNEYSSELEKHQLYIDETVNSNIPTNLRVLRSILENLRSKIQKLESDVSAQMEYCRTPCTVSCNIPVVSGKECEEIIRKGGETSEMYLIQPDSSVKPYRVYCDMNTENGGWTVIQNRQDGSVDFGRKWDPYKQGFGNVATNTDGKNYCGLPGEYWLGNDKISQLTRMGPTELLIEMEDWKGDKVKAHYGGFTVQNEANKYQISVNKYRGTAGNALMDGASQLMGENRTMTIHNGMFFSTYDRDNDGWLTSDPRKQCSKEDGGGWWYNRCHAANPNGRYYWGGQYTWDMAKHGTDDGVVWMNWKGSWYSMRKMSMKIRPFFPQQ
T1 sequence (P02679 27-437 isoform P02679-2 limits assumed): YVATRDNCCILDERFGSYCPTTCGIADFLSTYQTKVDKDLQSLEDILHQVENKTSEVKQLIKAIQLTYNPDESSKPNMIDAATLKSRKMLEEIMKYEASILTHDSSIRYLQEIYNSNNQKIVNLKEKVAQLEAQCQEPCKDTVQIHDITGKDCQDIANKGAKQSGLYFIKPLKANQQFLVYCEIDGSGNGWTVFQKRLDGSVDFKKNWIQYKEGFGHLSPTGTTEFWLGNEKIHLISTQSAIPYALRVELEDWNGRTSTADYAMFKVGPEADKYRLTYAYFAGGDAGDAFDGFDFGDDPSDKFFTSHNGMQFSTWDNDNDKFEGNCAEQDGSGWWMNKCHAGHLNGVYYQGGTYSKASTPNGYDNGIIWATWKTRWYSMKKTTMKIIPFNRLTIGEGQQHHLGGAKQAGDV
Source text: The assay works as follows: Reagents are substances added to a solution of another substance to participate in a chemical reaction. In this case, contents of boat 1 will react with contents of boat 2 to form a standardized clot. Thrombin (boat 2), when mixed with plasminogen and fibrinogen (boat 1), causes the conversion of fibrinogen to fibrin and forms a standardized in vitro clot consisting of plasminogen and fibrin. A test sample of t-PA is then exposed to the clot. T-PA causes the conversion of plasminogen to plasmin, and plasmin then breaks apart the fibrin strands. As the clot breaks apart, there is a change in the absorbance (light) characteristics. The absorbance is plotted versus time.
In such test, thrombin and fibrinogen are mixed together to produce fibrin; plasminogen and tenecteplase are mixed together to produce plasmin; and together the fibrin and plasmin lyse the clot. The test measures the effectiveness of tenecteplase to act with plasminogen to form plasmin and thus lyse the clot.
(§1) Tenecteplase (TNKASE™ variant of t-PA), obtained from Genentech, Inc. (e.g., U.S. Pat. No. 5,612,029) (50 mg/vial) was reconstituted to 5 mg/mL with 10 mL of SWFI. Using a 3 & 5 cc syringe and 22 G needle, 1, 2, and 5 mL of normal saline (NS) was removed from separate IV bags (500 mL NS, Baxter), in duplicates. The same volume was replaced with the reconstituted drug product to give a final tenecteplase concentration inside the bags of 0.01, 0.02, and 0.05 mg/mL. The bags were then mixed gently by inversions. A 10-mL aliquot of the diluted tenecteplase solution was sampled via the IV port with a 10-cc syringe and dispensed into two 5-cc clean clear glass vials (6 mL in one and the remaining in the other). The IV bags containing the diluted tenecteplase were placed on a bench top under normal fluorescent light at ambient conditions for 24 hours. Additional aliquots (10 mL each) from these IV bags were sampled after 8 and 24 hours of storage.
All the aliquots of tenecteplase were subjected to the clot lysis assay described above to determine the in vitro bioactivity of tenecteplase in these aliquots. The samples were diluted to two or three different concentrations within assay range (200-500 ng/mL) with the diluent. Tenecteplase was used as an internal reference. All values obtained were normalized to the tenecteplase reference material. The bioactivity was assayed by clot lysis before and after centrifugation.

[2] = pH of tenecteplase dilutions; type: physicochemical; details: for observed pH: over 24 hours of storage at ambient conditions
Description: as §1
The pH determination was performed using a RADIOMETER PHM 93™ pH meter and a microelectrode (MI-410™, Microelectrode, Inc.). The pH meter was standardized with pH 4.01 and 7.00 buffer standards prior to measurement at ambient conditions.

[3] = Tenecteplase concentration by RP-HPLC before and after centrifugation; type: physicochemical; details: for Conc. (+cent) by RP-HPLC: after centrifugation; for Conc. (−cent) by RP-HPLC: before centrifugation
Description: as §1
The clot lysis activity and protein concentrations (determined by RP-HPLC) were performed before and after centrifugation of each sample aliquot. This was to ensure that any precipitation that was not visible to the naked eye was removed prior to assay for more accurate interpretation of the results. […] At 0.01 mg/mL, the percent change in concentration was 57% immediately after dilution and increased to 71% after 24 hours. […] This observation can be explained, without being limited to any one theory, by a more pronounced protein adsorption at a lower concentration that usually occurs instantly and saturates with time.

[4] = targeted conc. 0.01 mg/mL in 0.9% NaCl IV bag, T = 0
[5] = targeted conc. 0.01 mg/mL in 0.9% NaCl IV bag, T = 8 hours ambient
[6] = targeted conc. 0.01 mg/mL in 0.9% NaCl IV bag, T = 24 hours ambient
[7] = targeted conc. 0.02 mg/mL in 0.9% NaCl IV bag, T = 0
[8] = targeted conc. 0.02 mg/mL in 0.9% NaCl IV bag, T = 8 hours ambient
[9] = targeted conc. 0.02 mg/mL in 0.9% NaCl IV bag, T = 24 hours ambient
[10] = targeted conc. 0.05 mg/mL in 0.9% NaCl IV bag, T = 0
[11] = targeted conc. 0.05 mg/mL in 0.9% NaCl IV bag, T = 8 hours ambient
[12] = targeted conc. 0.05 mg/mL in 0.9% NaCl IV bag, T = 24 hours ambient

B1: Tenecteplase: a t-PA variant designated T103N, N117Q, K296A, H297A,R298A,R299A available as TNKASE™ brand from Genentech, Inc.; diluted in 0.9% NaCl (protein, UniProt P00750 36-562, looked up, variant T103N N117Q K296A H297A R298A R299A)
Tissue-type plasminogen …: SYQVICRDEKTQMIYQQHQSWLRPVLRSNRVEYCWCNSGRAQCHSVPVKSCSEPRCFNGGTCQQALYFSDFVCQCPEGFAGKCCEIDTRATCYEDQGISYRGNWSTAESGAECTNWQSSALAQKPYSGRRPDAIRLGLGNHNYCRNPDRDSKPWCYVFKAGKYSSEFCSTPACSEGNSDCYFGNGSAYRGTHSLTESGASCLPWNSMILIGKVYTAQNPSAQALGLGKHNYCRNPDGDAKPWCHVLKNRRLTWEYCDVPSCSTCGLRQYSQPQFRIKGGLFADIASHPWQAAIFAAAAASPGERFLCGGILISSCWILSAAHCFQERFPPHHLTVILGRTYRVVPGEEEQKFEVEKYIVHKEFDDDTYDNDIALLQLKSDSSRCAQESSVVRTVCLPPADLQLPDWTECELSGYGKHEALSPFYSERLKEAHVRLYPSSRCTSQHLLNRTVTDNMLCAGDTRSGGPQANLHDACQGDSGGPLVCLNDGRMTLVGIISWGLGCGQKDVPGVYTKVTNYLDWIRDNMRP
overall percent specific activity of the recovered protein ([1]; 0.01 mg/mL): ≥ 100%
overall percent specific activity of the recovered protein ([1]; 0.02 mg/mL): ≥ 92%
overall percent specific activity of the recovered protein ([1]; 0.05 mg/mL): ≥ 80%
Lytic activity in clot lysis effectiveness test ([1]; diluted down to 0.01 mg/mL in normal saline): lytically active
Lytic activity after storage ([1]; diluted to 0.01, 0.02, and 0.05% mg/mL in 0.9% NaCl IV bags (500 mL), after 24 hours of storage at ambient conditions): lytically active
% Specific Activity [1, 4]: 100%
Clot lysis (+cent) [1, 4]: 0.004 mg/mL
Clot lysis (−cent) [1, 4]: 0.006 mg/mL
% Specific Activity [1, 5]: 125% and 120%
Clot lysis (+cent) [1, 5]: 0.005 mg/mL and 0.006 mg/mL
Clot lysis (−cent) [1, 5]: 0.007 mg/mL and 0.008 mg/mL
% Specific Activity [1, 6]: 100% and 120%
Clot lysis (+cent) [1, 6]: 0.005 mg/mL and 0.006 mg/mL
Clot lysis (−cent) [1, 6]: 0.007 mg/mL
% Specific Activity [1, 7]: 92%
Clot lysis (+cent) [1, 7]: 0.012 mg/mL
Clot lysis (−cent) [1, 7]: 0.015 mg/mL
% Specific Activity [1, 8]: 92%
Clot lysis (+cent) [1, 8]: 0.012 mg/mL
Clot lysis (−cent) [1, 8]: 0.015 mg/mL and 0.013 mg/mL
% Specific Activity [1, 9]: 100% and 92%
Clot lysis (+cent) [1, 9]: 0.013 mg/mL and 0.012 mg/mL
Clot lysis (−cent) [1, 9]: 0.015 mg/mL and 0.016 mg/mL
% Specific Activity [1, 10]: 82% and 78%
Clot lysis (+cent) [1, 10]: 0.037 mg/mL and 0.036 mg/mL
Clot lysis (−cent) [1, 10]: 0.040 mg/mL and 0.041 mg/mL
% Specific Activity [1, 11]: 76% and 82%
Clot lysis (+cent) [1, 11]: 0.034 mg/mL and 0.037 mg/mL
Clot lysis (−cent) [1, 11]: 0.039 mg/mL
% Specific Activity [1, 12]: 93% and 91%
Clot lysis (+cent) [1, 12]: 0.040 mg/mL
Clot lysis (−cent) [1, 12]: 0.043 mg/mL
observed pH ([2]; 0.01 mg/mL in NS): 6.7-6.8
observed pH ([2]; 0.02 mg/mL in NS): 6.8-6.9
observed pH ([2]; 0.05 mg/mL in NS): 7.1-7.2
pH [2, 4]: 6.70 and 6.73
pH [2, 6]: 6.77 and 6.71
pH [2, 7]: 6.93 and 6.83
pH [2, 9]: 6.86 and 6.90
pH [2, 10]: 7.12 and 7.15
pH [2, 12]: 7.10 and 7.07
% Change in Conc. (±cent) [3, 4]: 57%
Conc. (+cent) by RP-HPLC [3, 4]: 0.004 mg/mL
Conc. (−cent) by RP-HPLC [3, 4]: 0.007 mg/mL
% Change in Conc. (±cent) [3, 5]: 57% and 63%
Conc. (+cent) by RP-HPLC [3, 5]: 0.004 mg/mL and 0.005 mg/mL
Conc. (−cent) by RP-HPLC [3, 5]: 0.007 mg/mL and 0.008 mg/mL
% Change in Conc. (±cent) [3, 6]: 71%
Conc. (+cent) by RP-HPLC [3, 6]: 0.005 mg/mL
Conc. (−cent) by RP-HPLC [3, 6]: 0.007 mg/mL
% Change in Conc. (±cent) [3, 7]: 76%
Conc. (+cent) by RP-HPLC [3, 7]: 0.013 mg/mL
Conc. (−cent) by RP-HPLC [3, 7]: 0.017 mg/mL
% Change in Conc. (±cent) [3, 8]: 81%
Conc. (+cent) by RP-HPLC [3, 8]: 0.013 mg/mL
Conc. (−cent) by RP-HPLC [3, 8]: 0.016 mg/mL
% Change in Conc. (±cent) [3, 9]: 81%
Conc. (+cent) by RP-HPLC [3, 9]: 0.013 mg/mL
Conc. (−cent) by RP-HPLC [3, 9]: 0.016 mg/mL
% Change in Conc. (±cent) [3, 10]: 94% and 98%
Conc. (+cent) by RP-HPLC [3, 10]: 0.045 mg/mL and 0.046 mg/mL
Conc. (−cent) by RP-HPLC [3, 10]: 0.048 mg/mL and 0.047 mg/mL
% Change in Conc. (±cent) [3, 11]: 96%
Conc. (+cent) by RP-HPLC [3, 11]: 0.045 mg/mL
Conc. (−cent) by RP-HPLC [3, 11]: 0.047 mg/mL
% Change in Conc. (±cent) [3, 12]: 90% and 96%
Conc. (+cent) by RP-HPLC [3, 12]: 0.043 mg/mL and 0.044 mg/mL
Conc. (−cent) by RP-HPLC [3, 12]: 0.0480 mg/mL and 0.0460 mg/mL
